Several values for one entry are separate records, joined by “and”; a condition that tells them apart may be missing. Equal values may be shown once.
How the values were obtained:
[1] = target: T1, σNS (sigma NS) (Avian reovirus strain 1733) (UniProt W8NR44); test: fluorescence anisotropy; details: FA: 10 mM HEPES-NaOH pH 7.5, 150 mM NaCl, 21 C, 1 nM RNA, 30 min; smFRET in same buffer at 37 C; SEC 25 mM HEPES-Na pH 7.8, 150 mM NaCl, 4 C
T1 sequence: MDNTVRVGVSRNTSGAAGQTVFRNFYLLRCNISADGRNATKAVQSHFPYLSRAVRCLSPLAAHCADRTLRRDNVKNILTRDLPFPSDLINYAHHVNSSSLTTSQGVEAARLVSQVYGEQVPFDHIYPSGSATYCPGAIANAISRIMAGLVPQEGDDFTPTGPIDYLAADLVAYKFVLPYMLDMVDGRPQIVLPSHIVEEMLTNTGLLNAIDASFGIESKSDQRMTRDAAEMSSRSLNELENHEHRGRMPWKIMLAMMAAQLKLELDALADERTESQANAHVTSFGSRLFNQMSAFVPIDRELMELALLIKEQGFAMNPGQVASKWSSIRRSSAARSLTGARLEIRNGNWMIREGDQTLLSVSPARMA

[2] = target: T1, σNS (sigma NS) (Avian reovirus strain 1733); test: fluorescence anisotropy; details: FA: 10 mM HEPES-NaOH pH 7.5, 150 mM NaCl, 21 C, 1 nM RNA, 30 min; smFRET in same buffer at 37 C; SEC 25 mM HEPES-Na pH 7.8, 150 mM NaCl, 4 C; remark: listed apart in the source
[3] = target: T1, σNS (sigma NS) (Avian reovirus strain 1733); test: FCS; details: FA: 10 mM HEPES-NaOH pH 7.5, 150 mM NaCl, 21 C, 1 nM RNA, 30 min; smFRET in same buffer at 37 C; SEC 25 mM HEPES-Na pH 7.8, 150 mM NaCl, 4 C
[4] = target: T1, σNS (sigma NS) (Avian reovirus strain 1733); test: ensemble FRET; details: FA: 10 mM HEPES-NaOH pH 7.5, 150 mM NaCl, 21 C, 1 nM RNA, 30 min; smFRET in same buffer at 37 C; SEC 25 mM HEPES-Na pH 7.8, 150 mM NaCl, 4 C
[5] = target: avian reovirus σNS (ARV strain 1733), full-length recombinant (avian reovirus strain 1733); test: native MS
[6] = target: avian reovirus σNS (ARV strain 1733), full-length recombinant (avian reovirus strain 1733); test: SAXS
[7] = target: avian reovirus σNS (ARV strain 1733), full-length recombinant (avian reovirus strain 1733); test: AUC
[8] = target: avian reovirus σNS (ARV strain 1733), full-length recombinant (avian reovirus strain 1733); test: native MS; remark: listed apart in the source

With 20-nt ssDNA as the substance, how does the Kd [1] read?
Its Kd is 24.5 nM.

With “GGGAGACCUAUUCUCUUUUUCUCUCCUUUUCCCCCCUGUUGCUUUAUUUUCCUUCUUUGCCUUUUUCUCUCUUUUUUUUUCUUUUUUCCCUUUCUGCUUUCCUCCCCUAUUCUCCCCUCUU [120-nt RNA]” as the substance, how does the Kd [2] read?
The Kd was 25 nM.

Which Kd [3] does the source give for MS2 RNA (3569 nt) here?
The Kd was 250 nM.

What does the source list for “ATAGGTATAACAGTTAACGTATGCTATACGCTAATAGCATACGTTT [46-nt stem-loop]”?
Kd [2]: 333 nM; Kd [4]: 1100 nM

Which results are given for “avian reovirus σNS (ARV strain 1733), full-length recombinant (natural protein)”?
stoichiometry N [5]: 8; stoichiometry N [6]: 6; stoichiometry N [7]: 6; stoichiometry N [8]: 6 and 2 and 4

How did the Kd [2] turn out when GACCUAUUCUCUUUUUCUCU [20-nt RNA] was run?
The Kd was 26.5 nM.

What about the Kd [1] of the same substance?
The Kd was 35 nM.

What about the Kd [3] of the same substance?
The Kd was 39.5 nM.

From publication PMC4538827
